Experimental data from patent US20260152732.

Tested on: T1, DNASE1-LIKE 3, Isoform 1 (wild-type human D1L3), purified
T1 sequence: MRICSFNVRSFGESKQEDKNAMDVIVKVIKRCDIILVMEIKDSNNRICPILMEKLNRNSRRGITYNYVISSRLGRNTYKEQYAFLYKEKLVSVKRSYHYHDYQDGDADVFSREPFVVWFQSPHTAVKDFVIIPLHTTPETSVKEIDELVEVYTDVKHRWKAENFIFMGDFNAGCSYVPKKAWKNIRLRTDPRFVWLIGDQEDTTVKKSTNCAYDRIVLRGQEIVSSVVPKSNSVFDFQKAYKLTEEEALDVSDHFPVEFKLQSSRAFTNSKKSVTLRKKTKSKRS

Row | Substance | proteolytic cleavage sites (digestion, fragments sequenced by LC and MS)
1 | plasmin (purified) | plasmin cleaved D1L3 at the following arginine and lysine residues: R22, R29, K45, K47, K74, R81, R92, K107, K176, R212, R226, R227, K250, K259, and K262
2 | trypsin | trypsin cleaved D1L3 at the following arginine and lysine residues: R22, R29, R51, R66, R80, R81, R95, K99, R115, K147, K163, K180, R208, R212, R235, R239, K250, and K262
